What was measured:
[1] = target: mammalian RNA polymerase II holoenzyme (calf thymus)
[2] = target: RNA polymerase II holoenzyme (yeast)
[3] = target: RNA polymerase II (calf thymus) (bovine (calf thymus)); experiment: cofractionation during purification from calf thymus, Western blot

| Substance | in vitro transcription from the adenovirus major late promoter with 3 Gal4 binding sites, with coactivators HMG-2 or PC4 [1] [fold] | in vitro transcription from a template with a GAL4 site, reconstituted with holoenzyme, factor a and TBP [2] [fold] | percent of the RNA polymerase II associated with SRB7 [3] [%] |
| --- | --- | --- | --- |
| GAL4-VP16 (from UniProt P04386) | 5 | 5 |  |
| bovine SRB7 (from UniProt Q2TBU8) |  |  | > 20 |

— patent US5919666
